PMC3820547

How the values were obtained:
[1] = molecular target: A2 subunit of the RNA polymerase, endogenous (Pyrococcus abyssi (endogenous in P. abyssi cell extract))
[2] = molecular target: A1 subunit of the RNA polymerase, endogenous (Pyrococcus abyssi (endogenous in P. abyssi cell extract))
[3] = molecular target: Replication Protein A (Q9V1Z1, Q9V1Y9, Q9V1Z0), His-tagged RPA complex (Pyrococcus abyssi); assay: SPR; RPA (100 nM, 10 min) held on a 5' biotinylated 32-mer ssDNA on a streptavidin surface; analytes injected at 16.67, 50, 150 and 450 nM; 25°C, PBS Tween 0.5%, 20 uL/min; referenced against ssDNA/RPA dissociation curves; 1:1 binding model

Substance	run-off transcripts in a promoter-specific in vitro transcription assay (gdh promoter; RNAP, TBP and TFB from P. furiosus), RPA 10-50 nM [1]	run-off transcripts in a promoter-specific in vitro transcription assay (gdh promoter; RNAP, TBP and TFB from P. furiosus), RPA 10-50 nM [2]	stability relative to the RPA/catalytic subunit of DNA primase complex (from the dissociation constants of Figure 2) [3]
Replication Protein A (Q9V1Z1, Q9V1Y9, Q9V1Z0), His-tagged RPA complex	3 fold	3 fold	–
DNA Polymerase D (Q9V2F3, Q9V2F4), HIS-tagged complex (from UniProt Q9V2F3 1-619; Q9V2F4 1-1455)	–	–	2 fold
